The chains are these.
B1: HDV Ribozyme (parent)
chain: GGCCGGCAUGGUCCCAGCCUCCUCGCUGGCGCCGGCUGGGCAACAUUCCGAGGGGACCGUCCCCUCGGUAAUGGCGAAUGGGACCCA

In this series the parent is B1. In words: self-cleavage, relative activity (ratio to wild type); higher = more cleavage; co-transcriptional.
As for GGCCGGCAUGGUCCCAGACUCCUCGCUGGCGCCGGCUGGGCAACAUUCCGAGGGGACCGUCCCUUCGGUAAUGGCGAAUGGGACCCA [C18A C64U], the self-cleavage amounted to 0.256.

For GGCCGGCAUGGUCCCAGCCCCCUCGCUGGCGCCGGCUGGGCAACAUUCCGAGGGGACCGCCCCCUCGGUAAUGGCGAAUGGGACCCA [U20C U60C], the self-cleavage stood at 0.0978.

Turning to GGCCGGCAUGGUCCCAGCCUCCUCGCUGGCGCCGUCUGGGCAACAUUCCGAGGGGACCGUCCCCUCGGUAAUGGCGAAUGGGAUCCA [G35U C84U], the self-cleavage amounted to 0.343.

With GGCCGGCAUGGUCCCAGCCUGCUCGCUGGCGCCGGCGGGGCAACAUUCCGAGGGGACCGUCCCCUCGGUAAUGGCGAAUGGGACCCA [C21G U37G], the self-cleavage was found to be 0.166.

Consider GGCCGCCAUGGUGCCAGCCUCCUCGCUGGCGCCGGCUGGGCAACAUUCCGAGGGGACCGUCCCCUCGGUAAUGGCGAAUGGGACCCA [G6C C13G], for which the self-cleavage was found to be 0.151.

Turning to GGCCGGCAUGGUCCCAGCCUCCUCGCUGGCGCCGGCUGCGCAACUUUCCGAGGGGACCGUCCCCUCGGUAAUGGCGAAUGGGACCCA [G39C A45U], the self-cleavage worked out at 0.0475.

As for GGCCGGCAUGGUCCCAGCCUCCUCGCUGGCGCCGGCUGGGCAACAUUCCGAGGGGAACGUCCCCUCGGUAAUGGCGAAUGGCACCCA [C57A G82C], the self-cleavage is 0.298.

In the case of GGCCGGCAUGGUCCCAGCCGCCUCGCUGGCGCCGGCUGGGCAACAUUCCGAGGGAACCGUCCCCUCGGUAAUGGCGAAUGGGACCCA [U20G G55A], the self-cleavage amounted to 0.356.

On to GGCCGGCAUGGUCCCAGCCUCCUCGCUGGCGCCGGCUGGGCAACAUUCCGAGAGGACCGACCCCUCGGUAAUGGCGAAUGGGACCCA [G53A U60A], for which the self-cleavage was determined as 0.938.

Consider GGCCGGCAUGGUCCCAGCCUCCUCGCUGGCGCCGGGUGGGCAACAUUCCGAGGGGACCGUCCCCUCGGUAAUGGCGAAUGGGUCCCA [C36G A83U], for which the self-cleavage came to 0.113.

Consider GGCCGGCAUGGUCCCAGCCUCCUCGCUGGCGCCGGCUGAGCAACAUUCCGAGGGGACCGUCCCCUCGGUACUGGCGAAUGGGACCCA [G39A A71C], for which the self-cleavage turned out to be 0.332.

As for GGUCGGCAUGGUCCCAGCCUCCUCGCUGGCGCCGGCUGGGCAACAUUCCGAGGGGACCGUCCCCUCGCUAAUGGCGAAUGGGACCCA [C3U G68C], the self-cleavage was determined as 0.781.

Consider GGCCGGCAUGGUCCCAGCCUCCUCGCUGGCGCCGGCUGGGCAACAUUCCGAGGGGACCGUCCCCUCGGUAACGGCGAAUGCGACCCA [U72C G81C], for which the self-cleavage stood at 0.271.

As for GGCCGGCAUGGUCCCAGCCUCCCCGCUGGCGCCGGCUGGGCAACAUUCCGAGGGUACCGUCCCCUCGGUAAUGGCGAAUGGGACCCA [U23C G55U], the self-cleavage was 1.08.

Turning to GGCCGGCAUGGUCCCAGCCUCCUCGCUGGCGCCGGCCGGGCAACAUUCCGAGGGGGCCGUCCCCUCGGUAAUGGCGAAUGGGACCCA [U37C A56G], the self-cleavage was found to be 1.23.

With GGCCGGGAUGGUCCCAGCCUCCUCGCUGGCGCCGGCUGGGCAACAUUCCGAGGGGCCCGUCCCCUCGGUAAUGGCGAAUGGGACCCA [C7G A56C], the self-cleavage worked out at 0.391.

For the variant GGCCGGCAUGGUCCCAGCCUCCUCGCUGGCGUCGGCUGGGCAACAUUCCGAGGGGACCGUCCCCUCGGUAAUGGCGAAUGGCACCCA [C32U G82C], the self-cleavage was 0.253.

With GGCCGGCAUGGUCCCAGCCUCCUCGCUGGCGCCGGCUGGGCAACAUUCCGAGGGGACCGUCCCCUCGGUAAUGGCGAAUGGAACCCG [G82A A87G], the self-cleavage was 0.342.

As for GGCCGGCAUGGUCCCAGCCUGCUCGCUGGCGCCGGCUGGGCAACAUUCCGAGGGGACCGUCCCCUCGGUAAUGCCGAAUGGGACCCA [C21G G74C], the self-cleavage turned out to be 0.104.

On to GGCCGGCAUGGUCCCAUCCUCCUCGCUGGCGCCGGCUGGGCAACGUUCCGAGGGGACCGUCCCCUCGGUAAUGGCGAAUGGGACCCA [G17U A45G], for which the self-cleavage was 0.525.

Take GGCCGGCAUGGUCCCAGCCUCCUCGCUGGCGCCGGCUGGGCAACAUUCCGAGGGGACCUUCCCCUCGGUAGUGGCGAAUGGGACCCA [G59U A71G]: the self-cleavage turned out to be 1.13.

Consider GGCCGGCAUGGUCCCAGCCUCCUCGCUGGCGCCGGCUGGGCAACAUUCUGAGGGGACCGUCCCCUCGGUAAUGGCGAAUGGGACCAA [C49U C86A], for which the self-cleavage turned out to be 0.793.

Consider GGCUGGCAUGGUCCCAGCCUCCUCGCUGGCGCCGGCUGGGCAACAUUCCGAGGGGACCGUCCCCUCGGUAAUGGCGAAUGGCACCCA [C4U G82C], for which the self-cleavage stood at 0.0875.

GGCCGGCAUGGUCCCAGCCUCCUCGCUGGCGCCGUCUGGGCAACAUUCCUAGGGGACCGUCCCCUCGGUAAUGGCGAAUGGGACCCA [G35U G50U]: the self-cleavage came to 0.426.

On to GGCCGGCAUGGUCCCAGUCUCCUCGCUGGCGCCGGCUGGGCAACAUUCCGAGGGGACCGUCCCCUCGGUAAUGGCGGAUGGGACCCA [C18U A77G], for which the self-cleavage worked out at 0.623.

As to GGACGGCAUGGUCCCAGCCUCCUCGCUGGCGCCGGCUGGGCAAUAUUCCGAGGGGACCGUCCCCUCGGUAAUGGCGAAUGGGACCCA [C3A C44U], the self-cleavage came out at 0.145.

With GGCCGGCAUGGCCCCAGCCUCCGCGCUGGCGCCGGCUGGGCAACAUUCCGAGGGGACCGUCCCCUCGGUAAUGGCGAAUGGGACCCA [U12C U23G], the self-cleavage turned out to be 0.208.

In the case of GGCCGGCAUGGUCCCAGCCUUCUCGCUGGCGCCGGCUGGGCAACAUUCCGAGGGGACCGUCCCCUCGGUAAUGGCGAAUGGGACCCG [C21U A87G], the self-cleavage was determined as 0.165.

Consider GGCCGGCAUGGUCCCAGCCUCCUCGCUGGCGCCGGCUGGGCAACAUUCCGAGGGGACCCUCCCCUCGGUAAUGGCGAAGGGGACCCA [G59C U79G], for which the self-cleavage came to 0.712.

For the variant GGCCGGCAUGCUCCCAGCCUCCUCGCUGGCGCCGGCUCGGCAACAUUCCGAGGGGACCGUCCCCUCGGUAAUGGCGAAUGGGACCCA [G11C G38C], the self-cleavage was found to be 0.0755.

In the case of GGCCGGCAUGGUCCCAGCCUCCUCGCCGGCGCCGCCUGGGCAACAUUCCGAGGGGACCGUCCCCUCGGUAAUGGCGAAUGGGACCCA [U27C G35C], the self-cleavage was found to be 0.

On to GGCCGGCAUGGUCCCAGCCUCCUCGCUGGCGCUGGCUGGGCAACCUUCCGAGGGGACCGUCCCCUCGGUAAUGGCGAAUGGGACCCA [C33U A45C], for which the self-cleavage came out at 0.494.
